Results taken from PMC4385862.

Assays:
[1] = phosphorylation at Y342
β1 integrin = β1 integrin (UniProt P05556); assay: co-immunoprecipitation and Western blot; conditions: reference: wild-type GFP-K18; sites S52

Row | Substance | other [1] | binding against the reference (β1 integrin)
1 | ClC-3: Y342F | decreases | 
2 | keratin 18 (K18) (from UniProt P05783) S52A GFP-K18 |  | lost
